Test results from patent US20170122932A1 (MEDICAL AND BIOLOGICAL LABORATORIES, published 2017).

How the values were obtained:
[1] = molecular target: the molecule itself; assay: fluorescent foci in HEK293 cells co-expressing PB1-mAG1-FKBP12, 500 nM rapamycin; homodimer formation of CD80
Method: (§1) (A) CD80-FRB and PB1-mAG1-FKBP12; and [0651] (B) CD2-FRB and PB1-mAG1-FKBP12.
(§2) Specifically, first, HEK293 cells were cultured in a culture solution (DMEM high glucose, 10% FBS, 1% penicillin-streptomycin). Then, on the day before the transfection, the cells were seeded onto an 8-well chamber, and cultured in 100 μL of the culture solution per well. Subsequently, a DNA solution prepared by mixing 200 ng of each of the plasmids was diluted with 10 μL of OptiMEM. Thereafter, 0.8 μL of Fugene HD was added thereto and then stirred. The resultant was further mixed with 90 μl of the culture solution. After that, the obtained mixture solution was added to the cultured cells and cultured for 20 hours.

[2] = molecular target: the molecule itself; assay: fluorescent foci in HEK293 cells co-expressing PB1-mAG1-FKBP12, 500 nM rapamycin; negative control for homodimer formation
Method: as §1, §2

mAG1-Cyclin D1 = molecular target: T1, mAG1-Cyclin D1 (UniProt P24385 1-295); assay: fluorescent foci in HEK293 cells expressing mAG1-Cyclin D1, p21-PB1 and CDK4-PB1
T1 construct: whole, on cells; also called hmAG1-Cyclin D1
T1 sequence (P24385 other isoform, or with tags, fused parts or gaps): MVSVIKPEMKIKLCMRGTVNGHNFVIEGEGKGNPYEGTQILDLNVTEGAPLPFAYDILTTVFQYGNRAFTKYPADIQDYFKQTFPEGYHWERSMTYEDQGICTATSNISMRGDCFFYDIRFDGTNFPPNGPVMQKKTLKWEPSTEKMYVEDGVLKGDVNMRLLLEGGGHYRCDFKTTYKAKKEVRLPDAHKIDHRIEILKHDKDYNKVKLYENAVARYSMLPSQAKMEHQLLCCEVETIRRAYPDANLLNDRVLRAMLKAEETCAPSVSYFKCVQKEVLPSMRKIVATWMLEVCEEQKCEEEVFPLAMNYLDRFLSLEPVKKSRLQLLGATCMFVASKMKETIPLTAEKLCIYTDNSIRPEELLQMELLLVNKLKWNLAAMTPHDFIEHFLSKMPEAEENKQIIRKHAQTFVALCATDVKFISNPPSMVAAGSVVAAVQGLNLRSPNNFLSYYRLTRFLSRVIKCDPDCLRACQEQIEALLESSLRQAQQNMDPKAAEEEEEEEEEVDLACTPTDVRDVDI

B1: CD80-FRB (other, not shown: small tags and cut ends)
chain: VIHVTKEVKEVATLSCGHNVSVEELAQTRIYWQKEKKMVLTMMSGDMNIWPEYKNRTIFDITNNLSIVILALRPSDEGTYECVVLKYEKDAFKREHLAEVTLSVKADFPTPSISDFEIPTSNIRRIICSTSGGFPEPHLSWLENGEELNAINTTVSQDPETELYAVSSKLDFNMTTNHSFMCLIKYGHLRVNQTFNWNTTKQEHFPDNLLPSWAITLISVNGIFVICCLTYCFAPRCRERRRNERLRRESVRPVEMWHEGLEEASRLYFGERNVKGMFEVLEPLHAMMERGPQTLKETSFNQAYGRDLMEAQEWCRKYMKSGNVKDLTQAWDLYYHVFRRISKQ
notes: whole, on cells; In the assay it was joined by rapamycin to PB1-mAG1-FKBP12
B1: binds [1].

B2: CD2-FRB (other, not shown: small tags and cut ends)
chain: KEITNALETWGALGQDINLDIPSFQMSDDIDDIKWEKTSDKKKIAQFRKEKETFKEKDTYKLFKNGTLKIKHLKTDDQDIYKVSIYDTKGKNVLEKIFDLKIQERVSKPKISWTCINTTLTCEVMNGTDPELNLYQDGKHLKLSQRVITHKWTTSLSAKFKCTAGNKVSKESSVEPVSCPEKGLDIYLIIGICGGGSLLMVFVALLVFYITKRKKQRSRRNDEELETRAHRVATEERGRKPHQIPASTPQNPATSQHPPPPPGHRSQAPSHRPPPPGHRVQHQPQKRPPAPSGTQVHQQKGPPLPRPRVQPKPPHGAAENSLSPSSNEMWHEGLEEASRLYFGERNVKGMFEVLEPLHAMMERGPQTLKETSFNQAYGRDLMEAQEWCRKYMKSGNVKDLTQAWDLYYHVFRRISKQ
notes: whole, on cells
B2: no binding [2].

B3: CDK4-PB1 (other, not shown: small tags and cut ends)
chain: ATSRYEPVAEIGVGAYGTVYKARDPHSGHFVALKSVRVPNGGGGGGGLPISTVREVALLRRLEAFEHPNVVRLMDVCATSRTDREIKVTLVFEHVDQDLRTYLDKAPPPGLPAETIKDLMRQFLRGLDFLHANCIVHRDLKPENILVTSGGTVKLADFGLARIYSYQMALTPVVVTLWYRAPEVLLQSTYATPVDMWSVGCIFAEMFRRKPLFCGNSEADQLGKIFDLIGLPPEDDWPRDVSLPRGAFPPRGPRPVQSVVPEMEESGAQLLLEMLTFNPHKRISAFRALQHSYLHKDEGNPEMASLTVKAYLLGKEDAAREIRRFSFCCSPEPEAEAEAAAGPGPCERLLSRVAALFPALRPGGFQAHYRDEDGDLVAFSSDEELTMAMSYVKDDIFRIYIKEK
notes: whole, on cells
B3: binds (mAG1-Cyclin D1).
